Source: PMC5451212, “RISC-interacting clearing 3’- 5’ exoribonucleases (RICEs) degrade uridylated cleavage fragments to maintain functional RISC in Arabidopsis thaliana” (eLife, 2017)
Several values for one entry are separate records, joined by “and”; a condition that tells them apart may be missing. Equal values may be shown once.

Tests used:
[1] = target: the molecule itself; test: SEC; purified proteins after SUMO protease cleavage on Superdex75 (1.6 x 60), 20 mM Tris-HCl pH 7.5, 150 mM NaCl
[2] = target: the molecule itself; test: crystal structure; RICE1 at 20 mg/ml, hanging drop at 16°C, ~30% pentaerythritol propoxylate (5/4 PO/OH), 0.2 M KCl, 50 mM HEPES pH 7.5; space group I4(1)22, three molecules in the asymmetric unit
[3] = target: the molecule itself; test: SEC; purified RICE1 D114A on Hiload 16/600 Superdex 200 instead of the routinely used Superdex 75

Protein | stoichiometry N [1] | stoichiometry N [2] | stoichiometry N [3]
RICE1, purified recombinant (SUMO tag cleaved) (enzyme, A. thaliana, UniProt Q9SF21 1-200, looked up, RICE1 (At3g11770), A. thaliana; full-length cDNA in pET28a-SUMO (BamHI/SacI); also called wild type RICE1; source: E. coli BL21 (DE3), purified (Ni-NTA, SUMO protease cleavage, SEC); not shown: His6, N-terminal, cleaved; SUMO, N-terminal, cleaved) MASFDGQGFMMVDNSWVQTKAIDVESTTDISPYLSKILEDSVWNGNRSIVFDVYWDVKSVSTKSEWRLCSVKFSTKNFCLFLRLPNPFCDNLKDLYRFFASKFVTFVGVQIQEDLALLKENHGIVIRSSLEIGKLAAKARGTPIVEFLGTRELAHKILWYDMSRLDSIQSKWDEASSNDRLEAAAIEGWLIFNVYDQLQQ | ~6 | 6 | 
RICE1 D114A, purified recombinant (enzyme, A. thaliana, UniProt Q9SF21 1-200, looked up, RICE1 (At3g11770), A. thaliana; point mutant made on pET28a-SUMO-RICE1; source: E. coli BL21 (DE3), purified (Ni-NTA, SUMO protease cleavage, SEC); not shown: His6, N-terminal, cleaved; SUMO, N-terminal, cleaved) MASFDGQGFMMVDNSWVQTKAIDVESTTDISPYLSKILEDSVWNGNRSIVFDVYWDVKSVSTKSEWRLCSVKFSTKNFCLFLRLPNPFCDNLKDLYRFFASKFVTFVGVQIQEALALLKENHGIVIRSSLEIGKLAAKARGTPIVEFLGTRELAHKILWYDMSRLDSIQSKWDEASSNDRLEAAAIEGWLIFNVYDQLQQ |  |  | 2 and 6
